Experimental data from publication PMC12173945, “Import mechanism of peroxisomal proteins with an N-terminal signal sequence” (Nature Cell Biology, 2025).

B1: PEX7–GFP: PEX7 fused at the C terminus to a linker (SGSG) followed by mEGFP (protein)
chain: MLRYHMQGFSGYGVQYSPFFDNRLAVAAGSNFGLVGNGKLFILEIDRSGRIVEVNSFLTQDCLFDLAWNESHENQVLVAQGDGTLRLFDTTFKEFPIAIFKEHEREVFSCNWNLVNRQNFLSSSWDGSIKIWSPLRKQSLMTLTPRPLEITKMVDPLNAIILKKKSFTGISKNRNCVYQAQFSPHDQNLVLSCSGNSYASLFDIRLPSGKNQNNFLVHSGLEALTCDFNKYRPYVVATGGVDNAIRIWDIRMLNKNESATIKRTVPGQLHNSSCINEIPNAHGLAIRKVTWSPHHSNILMSASYDMTCRIWRDLSNDGAKETYKTNSTDATKGSIFNFTQHSEFVFGADWSLWGKPGYVASTAWDGNLFVWNGLG
modifications: left off: GST, N-terminal, cleaved | GFP, C-terminal, kept
B2: PEX7: full-length PEX7 from S. cerevisiae (GenBank accession no. NP_010426.1) (protein)
chain: B1 chain
modifications: left off: GST, N-terminal, cleaved

Assays:
[1] = tested on: YG hydrogel (wild-type YG-domain polypeptide of PEX13); experiment: YG hydrogel permeation assay, wild-type hydrogel (Fig. 2, Fig. 3g, Extended Data Fig. 9d); details: wild-type hydrogel
Experimental: A solution of the purified wild-type YG-domain polypeptide (or the variant lacking the KPWE motif) was concentrated to 2 mM in 50 mM HEPES·NaOH pH 7.8 at RT, 2 M urea and 2 mM TCEP. Aliquots of 2 µl were then spotted on the bottom of multiple wells of a 96-well glass-bottomed plate (Cellvis, P96-1.5H-N), which was then sealed with a gas-impermeable AlumaSeal II film (Hampton Research, HR8-069) to prevent desiccation and incubated at RT for 24 h. Before each assay, the resulting gels were equilibrated overnight at RT in a 100-fold excess of Assay Buffer (25 mM HEPES·NaOH pH 7.8 at RT, 150 mM NaCl and 1 mM TCEP). A 0.5 µM solution of fluorescently labelled protein in Assay Buffer was then added to the samples, with or without additional components at the concentrations indicated in the text, and incubated at RT. Gels were imaged at the times indicated in the text using a Nikon A1R point-scanning confocal system consisting of an inverted Nikon Eclipse Ti microscope and a Nikon ×20 0.75 NA Plan Apo air objective. The objective was centred on the gel edge and focus was maintained 5 µm above the glass surface using the Nikon Perfect Focus System. Fluorescence was excited through a 405/488/561/647 quad-band dichroic (Chroma), using a 488-nm solid-state laser (Coherent) and a galvano scanner. A 50-nm emission band was collected on a gallium arsenide phosphide detector, using an ET525/50m (525 ± 25 nm) single-band bandpass filter (Chroma) and a pinhole dilated to 0.9 Airy units. Images were acquired using the Nikon NIS-Elements software with a pixel size of 1 µm and a 12-bit digitizer. Imaging parameters were configured to maximize the SNR while avoiding saturation. All samples intended to be compared were imaged using identical acquisition settings.
(§1) For the YG hydrogel permeation assay, images were first oriented such that each gel edge faced the same direction. Fluorescence profiles across the buffer–gel interface were then generated by centering a 60 × 300 µm rectangular area on the gel edge and then measuring the mean fluorescence at each position within this selection. To express the resulting values in terms of fold enrichment, the fluorescence at each position along the selection was normalized to the average fluorescence in the buffer and plotted in terms of the distance from the gel edge.
To calculate permeation rates through the YG hydrogel, a 60 × 300 µm rectangular area was first centred on the gel edge. The resulting region was then thresholded to demarcate the permeation zone (that is, the distance traversed by the fluorescent species) from the buffer and non-permeated part of the gel. The width of the area above the threshold was then measured and plotted as a function of time. A linear fit to the data yielded the permeation rate.

[2] = tested on: peroxisomes in Xenopus egg extract; experiment: Peroxisomal protein import assay in Xenopus egg extract; type: biochemical, Xenopus laevis; details: GFP fusion, 1 h
Experimental: Import reactions were performed exactly as described in a previously published protocol. Briefly, extract was mixed with 500 nM of the indicated cargo and 100 nM of the indicated receptor variants with or without 100 nM PEX7, and incubated at 24 °C. Where stated, endogenous PEX5 was first depleted from the extract using agarose beads covalently conjugated to the high-affinity PEX5-binding domain from PEX14. Recombinant proteins were diluted in XBHS buffer (40 mM HEPES·KOH pH 7.7 at RT, 100 mM KCl, 1 mM MgCl2, 0.1 mM CaCl2 and 250 mM sucrose) before being added to the reactions. For imaging, an aliquot of each reaction was sandwiched between two 22 × 22 mm no. […] The samples were illuminated by an 80-mW solid-state 488-nm laser through a Di01-T405/488/568/647 dichroic (Semrock), and fluorescence was collected through a Nikon ×100 1.45 NA Plan Apo Lambda oil-immersion objective and a green-emission ET525/50 m (525 ± 25 nm) single-band bandpass filter (Chroma). […]
To calculate import rates in Xenopus egg extract, images were first thresholded to identify peroxisomes that were within the focal plane. A circular area with a diameter of 3 pixels was then centred on each local maximum and the mean fluorescence within this area was measured; the average fluorescence in the cytosol was then subtracted from the measured values. […]

[3] = tested on: YG hydrogel (∆KPWE YG-domain polypeptide of PEX13); experiment: YG hydrogel permeation assay, hydrogel lacking the KPWE motif (Fig. 3g); details: 1 h
Experimental: A solution of the purified wild-type YG-domain polypeptide (or the variant lacking the KPWE motif) was concentrated to 2 mM in 50 mM HEPES·NaOH pH 7.8 at RT, 2 M urea and 2 mM TCEP. Aliquots of 2 µl were then spotted on the bottom of multiple wells of a 96-well glass-bottomed plate (Cellvis, P96-1.5H-N), which was then sealed with a gas-impermeable AlumaSeal II film (Hampton Research, HR8-069) to prevent desiccation and incubated at RT for 24 h. Before each assay, the resulting gels were equilibrated overnight at RT in a 100-fold excess of Assay Buffer (25 mM HEPES·NaOH pH 7.8 at RT, 150 mM NaCl and 1 mM TCEP). […] Fluorescence was excited through a 405/488/561/647 quad-band dichroic (Chroma), using a 488-nm solid-state laser (Coherent) and a galvano scanner. […]
as §1

Row | Molecule | Entry into YG hydrogel [1] | Import into peroxisomes in Xenopus egg extract [2] | Entry into YG hydrogel lacking the KPWE motif [3]
1 | B1 | readily entered the phase | enters peroxisomes only when it is assembled into a complex with PEX5 and cargo | 
2 | B2 |  |  | some entry of PEX7 into YG hydrogels was observed in the absence of the KPWE motif
